Test results reported in patent US20210395318A1 (Molecular Partners, published 2021).

What was measured:
[1] = target: T1, mouse FAP (mouse, UniProt P97321 26-761, limits assumed); experiment: SPR (ProteOn XPR36), mFAP immobilized on GLC chip, Protein #5 as analyte
T1 construct: also called mFAP
T1 sequence (looked up): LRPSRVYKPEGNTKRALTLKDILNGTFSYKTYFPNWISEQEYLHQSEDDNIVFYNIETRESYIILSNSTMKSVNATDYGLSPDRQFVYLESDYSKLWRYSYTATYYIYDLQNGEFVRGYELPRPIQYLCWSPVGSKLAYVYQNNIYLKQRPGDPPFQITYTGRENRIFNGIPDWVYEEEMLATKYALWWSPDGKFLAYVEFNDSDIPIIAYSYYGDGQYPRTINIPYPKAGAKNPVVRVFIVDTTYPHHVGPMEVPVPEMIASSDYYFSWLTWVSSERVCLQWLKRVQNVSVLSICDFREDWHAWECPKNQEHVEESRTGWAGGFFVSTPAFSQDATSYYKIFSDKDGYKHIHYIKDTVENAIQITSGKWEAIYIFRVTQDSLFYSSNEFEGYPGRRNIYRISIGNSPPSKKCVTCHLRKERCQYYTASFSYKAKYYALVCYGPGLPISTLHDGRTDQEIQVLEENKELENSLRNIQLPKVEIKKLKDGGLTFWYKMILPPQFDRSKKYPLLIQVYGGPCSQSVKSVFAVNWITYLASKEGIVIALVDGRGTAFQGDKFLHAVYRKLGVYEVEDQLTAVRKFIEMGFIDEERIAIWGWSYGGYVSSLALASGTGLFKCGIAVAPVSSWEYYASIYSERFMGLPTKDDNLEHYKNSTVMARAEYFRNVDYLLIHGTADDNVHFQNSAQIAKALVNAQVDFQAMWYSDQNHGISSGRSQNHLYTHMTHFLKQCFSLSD
Procedure: (§1) All SPR measurements were performed using a ProteOn XPR36 instrument (BioRad) and a running buffer of PBS pH 7.4 containing 0.005% Tween 20® (PBST). The 1:1 Langmuir model was used for the fitting of SPR traces.
ProteOn setup for Protein #5 binding to FAP of different species. hFAP, cynomolgus FAP (cFAP) and mouse FAP (mFAP) were immobilized on a GLC chip (BioRad) in 10 mM Na Acetate buffer pH5.3 to a level of 1200 RU, 800 RU and 2000 RU, respectively. The interaction of FAP and Protein #5 was measured by applying Protein #5 in a serial dilution of […] and 3.13 nM with an association of 120 s and dissociation of 1800 s using a constant flow of 100 μl/min. The targets were regenerated using 10 mM glycine pH 2 and 124 mM H₃PO₄. The signals were double referenced against the PBST treated control lanes.

[2] = target: T2, biotinylated human CD40 (Acro Biosystem) (human, UniProt P25942 21-193, biotinylated (sites not given)); experiment: SPR (ProteOn XPR36), biotinylated CD40 on NLC chip, Protein #5 as analyte, PBST, 1:1 Langmuir
T2 construct: Bought protein; also called Bio-hCD40; hCD40
T2 sequence (P25942 21-193 H80K/K81H limits assumed): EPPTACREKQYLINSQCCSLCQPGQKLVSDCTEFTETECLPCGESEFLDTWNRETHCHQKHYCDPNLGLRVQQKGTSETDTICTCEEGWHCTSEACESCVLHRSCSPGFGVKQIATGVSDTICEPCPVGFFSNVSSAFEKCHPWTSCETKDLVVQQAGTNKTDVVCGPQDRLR
Procedure: as §1
(§2) ProteOn setup for Protein #5 binding to CD40 of different species. CD40 proteins (Acro Biosystem) of different species (human, cynomolgus, mouse) were biotinylated with standard methods known in the art, resulting in bio-hCD40, bio-cCD40 and bio-mCD40 proteins. The bio-hCD40, bio-cCD40 and bio-mCD40 proteins were immobilized on an NLC chip (BioRad) to a level of respectively 300 RU, 250 RU and 300 RU. The interaction of Protein #5 with CD40 was measured by injecting Protein #5 in a serial dilution of 3, 1.5, 0.75, 0.38 and 0.19 nM with an association of 120 s and dissociation of 900 s using a constant flow of 100 μl/min. The measurement was repeated two or three times and the targets were regenerated between the individual measurements using 10 mM glycine pH 2 for 18 s at a flow of 100 μl/min. The signals were double referenced against the running buffer (PBST) treated control lanes.

[3] = target: T3, biotinylated cynomolgus CD40 (Acro Biosystem) (cynomolgus, UniProt G7PG38 21-193, biotinylated (sites not given)); experiment: as above
T3 construct: also called Bio-cCD40
Procedure: as §1, §2

[4] = target: T4, human serum albumin (human, UniProt P02768 25-609); experiment: SPR (ProteOn XPR36), Protein #5 captured on hFAP-coated GLC chip, serum albumin as analyte, PBST
T4 construct: also called HSA
T4 sequence (P02768 25-609 limits assumed): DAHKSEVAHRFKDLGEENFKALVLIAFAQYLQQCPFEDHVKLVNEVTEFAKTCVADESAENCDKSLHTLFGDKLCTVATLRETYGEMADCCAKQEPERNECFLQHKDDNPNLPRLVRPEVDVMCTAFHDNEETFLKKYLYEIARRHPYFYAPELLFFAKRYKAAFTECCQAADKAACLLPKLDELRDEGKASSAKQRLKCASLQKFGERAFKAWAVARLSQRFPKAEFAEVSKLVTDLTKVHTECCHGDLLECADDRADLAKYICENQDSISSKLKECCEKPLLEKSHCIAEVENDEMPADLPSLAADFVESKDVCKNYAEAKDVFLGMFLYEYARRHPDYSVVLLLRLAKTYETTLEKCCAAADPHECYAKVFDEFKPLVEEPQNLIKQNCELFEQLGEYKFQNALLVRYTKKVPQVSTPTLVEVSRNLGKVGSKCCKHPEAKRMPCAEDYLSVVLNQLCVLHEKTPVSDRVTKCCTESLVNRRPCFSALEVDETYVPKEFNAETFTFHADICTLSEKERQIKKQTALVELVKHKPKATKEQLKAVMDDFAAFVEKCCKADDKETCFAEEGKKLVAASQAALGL
Procedure: as §1
(§3) ProteOn setup for Protein #5 binding to serum albumin of different species. First, human FAP (hFAP) was coated on a GLC chip (BioRad) to a level of 700 RU before 50 nM Protein #5 was immobilized as analyte for 120 s (dissociation of 0 s) at constant flow of 100 μl/min to a level of 120 RU. The binding of the serum albumin to Protein #5 was measured by injecting human serum albumin (HSA), cynomolgus serum albumin (CSA) and mouse serum albumin (MSA) in a serial dilution of 100, 33, 11 and 3.7 nM with an association of 120 s and a dissociation of 600 s at a constant flow of 100 μl/min. HSA, CSA and MSA binding was measured serially and the hFAP/Protein #5 complex was regenerated each time with 10 mM glycine pH2 for 18 s at a flow of 100 μl/min. Thus, Protein #5 had to be re-immobilized on hFAP after each regeneration step. […] The kinetic was calculated on the first 300 s of dissociation.

[5] = target: T5, cynomolgus serum albumin (cynomolgus, UniProt A2V9Z4 25-608); experiment: as above
T5 construct: also called CSA
T5 sequence (A2V9Z4 25-608 limits assumed): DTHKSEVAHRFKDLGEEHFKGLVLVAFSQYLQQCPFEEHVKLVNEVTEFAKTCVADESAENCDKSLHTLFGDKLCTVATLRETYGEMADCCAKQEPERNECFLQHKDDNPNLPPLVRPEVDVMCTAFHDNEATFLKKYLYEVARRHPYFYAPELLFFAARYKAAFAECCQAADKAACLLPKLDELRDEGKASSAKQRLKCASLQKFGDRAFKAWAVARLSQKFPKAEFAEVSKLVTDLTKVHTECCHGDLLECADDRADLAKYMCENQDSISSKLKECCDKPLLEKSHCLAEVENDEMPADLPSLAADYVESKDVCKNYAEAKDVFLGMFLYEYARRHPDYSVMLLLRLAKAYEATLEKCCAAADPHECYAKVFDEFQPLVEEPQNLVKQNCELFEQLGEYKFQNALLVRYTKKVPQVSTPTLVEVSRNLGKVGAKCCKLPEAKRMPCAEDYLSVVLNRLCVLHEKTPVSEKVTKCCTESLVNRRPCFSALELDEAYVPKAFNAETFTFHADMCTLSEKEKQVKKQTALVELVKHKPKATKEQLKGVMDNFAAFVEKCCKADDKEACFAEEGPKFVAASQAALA
Procedure: as §1, §3

[6] = target: T6, mouse serum albumin (mouse, UniProt P07724 25-608); experiment: SPR (ProteOn XPR36), Protein #5 captured on hFAP-coated GLC chip, serum albumin as analyte, PBST; flagged as overestimated, inaccurate fit; MSA as analyte; patent flags the fit as inaccurate (Chi^2/Rmax 13.1 %) and the KD as overestimated due to nonspecific binding of MSA on the chip
T6 construct: also called MSA
Procedure: as §1, §3

B1: DARPin Protein #5 (designed binder)
chain: GSDLGKKLLEAARAGQDDEVRELLKAGADVNAKDYFSHTPLHLAARNGHLKIVEVLLKAGADVNAKDFAGKTPLHLAAADGHLEIVEVLLKAGADVNAQDIFGKTPADIAADAGHEDIAEVLQKAAGSPTPTPTTPTPTPTTPTPTPTGSDLGKKLLEAARAGQDDEVRILLAAGADVNAKDVLGWTPLHLAAFEGHLEIVEVLLKAGADVNAKDKKGWTPLQLAARTGHLEIVEVLLKAGADVNAKDHIGATPLHLAAWQGHPEIVEVLLKAGADVNAQDKSGKTPADLAADAGHEDIAEVLQKAAGSPTPTPTTPTPTPTTPTPTPTGSDLGKKLLQAARAGQLDEVRELLKAGADVNAKDTWGFTPLHIAAESGHLEIVEVLLKAGADVNAKDVQGRTPLHIAAHSGHLEIVEVLLKAGADVNAKDFRGWTPLHLAAWSGHLEIVEILLKAGADVNAQDKSGKTPADLAARAGHQDIAEVLQKAAGSPTPTPTTPTPTPTTPTPTPTGSDLGKKLLQAARAGQLDEVRELLKAGADVNAKDTWGFTPLHIAAESGHLEIVEVLLKAGADVNAKDVQGRTPLHIAAHSGHLEIVEVLLKAGADVNAKDFRGWTPLHLAAWSGHLEIVEILLKAGADVNAQDKSGKTPADLAARAGHQDIAEVLQKAA
notes: also called SMA136; Molecule No. 1
For B1, the binding result [1] was “no binding (tested: 50 nM (highest concentration injected))”, the Kd [2] was 0.103 nM and the koff [2] was 0.00103 s⁻¹. It also gave a kon [2] of 1.01e+07 M⁻¹ s⁻¹, a Kd [3] of 0.101 nM and a koff [3] of 0.000824 s⁻¹. It also gave a kon [3] of 8.25e+06 M⁻¹ s⁻¹, a Kd [4] of 50 nM and a koff [4] of 0.0179 s⁻¹. It also gave a kon [4] of 358000 M⁻¹ s⁻¹, a Kd [5] of 409 nM and a koff [5] of 0.217 s⁻¹. It also gave a kon [5] of 532000 M⁻¹ s⁻¹ and a Kd [6] of 40 nM.
